# Laboratory results: the RNAGym collection of RNA variant scans (doi:10.1073/pnas.2313332121)
# This sample holds only a part of the variants without activity.
# B1: TPR 5TU (parent)
# chain: GGAUCUUCUCGAUCUAACAAAAAAGACAAAUCUGCCACAAAGCUUGAGAGCAUCUUCGGAUGCAGAGGCGGCAGCCUUCGGUGGCGCGAUAGCGCCAACGUUCUCAACUAUGACACGCAAAACGCGUGCUCCGUUGAAUGGAGUUUAUCAUG
# Variants of: B1
# Experiment: polymerase ribozyme fitness, log enrichment relative to wild type (log ratio); higher = more active; in vitro selection for triplet polymerase activity
# In short: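 To select mutant libraries of each subunit of a heterodimeric triplet polymerase ribozyme, built by PCR and transcribed, each was annealed with a biotinylated primer, partner subunit and triplets, then incubated frozen at −7 °C. Extended constructs were gel-excised, captured on streptavidin beads and amplified by RT-PCR, in one round carried out in triplicate. Illumina sequencing of input and output libraries kept genotypes with ≥10 input reads and ≥1 read per output. Fitness is the base-2 logarithm of genotype enrichment relative to wild-type enrichment, from inverse-variance-weighted replicate averages.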
row,Variant,polymerase ribozyme fitness (log ratio)
1,G59A A119U,-0.778
2,G59U C69U C87G C105G C129A G141A,≤ -4.2
3,G58U C75A U90A,≤ -4.2
4,A60G C69A G88A C95G U101A A106C A107G A119C U148A,≤ -4.2
5,A60C U82G G84A,-1.71
6,G59C A97U,-0.431
7,G59U G94U C105U G124U G143C,-3.65
8,G58C A89G,-0.995
9,G59A G67A G86C C96G G140U U144C A147U,≤ -4.2
10,G59C C93U C116U U135G,-3.78
11,G59C G94C A119C U146G,-1.61
12,G58U A64G A91G A113U U135A,≤ -4.2
13,A60C U82G G86A U146G,-3.33
14,G58C C103A U145G,-1.84
15,G59C U82G C85A U102G,-4.09
16,G58U G59A,0.429
17,G58C G94C,-0.872
18,G59A A73G U90C C93G C131U U144G,≤ -4.2
19,G58C C63U U102G A106U G126A C132A,≤ -4.2
20,G59A G136C,-2.89
21,G59A C76G C93G,≤ -4.2
22,G58C C63G C96G,-0.61
23,G59A G83U,-1.06
24,G59C G81A,-2.07

row,Variant,polymerase ribozyme fitness (log ratio)
1,G59C U61A,-1.51
2,G59A A115G G140A,≤ -4.2
3,G59A G92U U104C A121C,-2.09
4,A60C G88C,≤ -4.2
5,G59A C93U A98U A138C,≤ -4.2
6,G59A G86U,-1.84
7,G59A G86A,-2.02
8,G58C G80C C95U,≤ -4.2
9,G59U G86A A147U,-0.0426
10,G58C U82G C99G,-1.45
11,G59A G70U C93G A113U,≤ -4.2
12,G59C C85U,-0.507
13,G59C C114U G128A A142U,-2.5
14,G59U G84U,-2.72
15,A60C U61G G92A A110U,-3.93
16,G59C C95U,0.0454
17,G59C C95A,-0.188
18,G58U C132G,-2.82
19,G59A C85U U102G A106C G141A,≤ -4.2
20,G59A C125A,0.12
21,G59A C99A G140U,-3.99
22,G59C U78G G81C,-4.11
23,G58C C79G A107U U134A U139C,≤ -4.2
24,G59C A142C,-0.57

row,Variant,polymerase ribozyme fitness (log ratio)
1,G59C G133U,-3.47
2,G58C A115U U127C U144G,0.143
3,G58C G84A G112U,≤ -4.2
4,G59A C96A G117U,-0.271
5,G59C G83U,0.0759
6,G59C G83A,-0.754
7,G59A A89U,-0.162
8,G59C G68C G70U G140U,≤ -4.2
9,G59C A119C,-0.18
10,G58C C87U U135A,-2.15
11,G59U G88U A121U U127A U134G,≤ -4.2
12,G59A C93A U135C U146A,-3.8
13,G59A G67A C108U,≤ -4.2
14,G59A C118A,-0.536
15,A60G A115G U144C U146A A150U,-3.85
16,G59A C149A,-3.65
17,G58C G70C G141A,≤ -4.2
18,G58U A97G A98G G117U U146G,-0.542
19,G58C C87G A98G,≤ -4.2
20,G58U U82A A142G,-0.998
21,G59C G84A,-0.218
22,A60C G80A,-2.27
23,G59C G67A C85A G112U,≤ -4.2
24,G59A U78C G88U C96U U109G G140C,≤ -4.2

row,Variant,polymerase ribozyme fitness (log ratio)
1,A60C C93U,-2.64
2,A60C C93A,-3.64
3,G58C A60G,0.746
4,G58C A122G A150C,-3.46
5,A60C C103A,≤ -4.2
6,G59C A64U C75U C132U,≤ -4.2
7,G58U G128U,-3.02
8,G59C U101G,-0.121
9,G58C G140A,-3.51
10,A60C U148G A150U,≤ -4.2
11,A60C A89C G94A,-1.69
12,G58C G83A G84U G92U U135A U139G G141A,≤ -4.2
13,G59U C93A G152U,≤ -4.2
14,G59A C75G G94U C95U,-3.76
15,G59C G86C G143U,≤ -4.2
16,G59A A60G G94U C95A,-1.74
17,G59A G94A A150C,≤ -4.2
18,G59A C85G G100A A115U U127G G141A,≤ -4.2
19,G59C C93A C95A,-4.05
20,G59A U78A G92U C96A C114U A121U,≤ -4.2
21,G59C A120U A122C A147G,-1.22
22,G59A C87U A121U,-0.901
23,A60C A73G C93U,≤ -4.2
24,G59C C85G C95U C116A,-2.38

row,Variant,polymerase ribozyme fitness (log ratio)
1,A60C C76U,-3.17
2,G59A G84U A98G A115U,-3.58
3,G59A C118G U130A C132G G140A,≤ -4.2
4,A60C A91U C118A,≤ -4.2
5,G59A C87U U101G G136C,-2.91
6,G58C U61A G74U U77G C79U G80C C87A,≤ -4.2
7,G58U C69G C87G,≤ -4.2
8,G58U C87U C125G,-0.741
9,G59U G86A C118G,-2.48
10,G59A A60G,-0.0653
11,G59A A60C,-1.48
12,G59C G100A A115C U144C,≤ -4.2
13,G59C G86A A89G,-4
14,G58U A137C,-3.03
15,A60G A91C C95U A110U C114U C118G A150U,≤ -4.2
16,G59U C87U C108U C125A,-3.4
17,A60C G81C C87A,≤ -4.2
18,G58C U144C,0.128
19,G58C C87U,-1.59
20,G58C C87A,≤ -4.2
21,G59A G124U C125G G136U U139A U146A,≤ -4.2
22,G58U A91G,-2.46
23,G59C U127G U130C,≤ -4.2
24,G59U C96A,-0.703

row,Variant,polymerase ribozyme fitness (log ratio)
1,G59U C96U,-0.292
2,G58C C118A,-0.0404
3,G59U G67C G136A,≤ -4.2
4,G59U U148C,-1.18
5,G59U U148G,-3.83
6,G59C G62A A122U U134G,-3.13
7,G59U C85U A150U,1.1
8,G58C G68A G94U C96G,≤ -4.2
9,G58U G62U C99U C118U U134C,≤ -4.2
10,G58U G86A U130C,0.803
11,G59A G88A,-4.04
12,G59A G88U,-3.96
13,G59A G88C,-3.73
14,G58C U111G C116A A137C,≤ -4.2
15,G58C U134G,-3.93
16,G59C G81C G84C,≤ -4.2
17,G58C U102A C114A,-4.12
18,G59A A110U,-3.64
19,G58U G88C U130G,≤ -4.2
20,G59U G68A G83A A89U G94U G128U,≤ -4.2
21,A60G A107U C131G,≤ -4.2
22,G59C U61G C96G C105U A115U A150U,≤ -4.2
23,G58C C75G C76G C85U,≤ -4.2
24,G59A A66G,-3.24

row,Variant,polymerase ribozyme fitness (log ratio)
1,G58C G84U G136U,-3.72
2,G59U A120U A122U,-0.451
3,G59C A97U U139G,-0.518
4,G58C C79U C85G G141U,≤ -4.2
5,G59C G86C C118A,-2.85
6,G59A G74A,-3.23
7,G58C C63U A120C,-0.534
8,G58C G83C G117C,-0.409
9,G58C A73G G84U,-1.97
10,A60C G71A C85A G143C,≤ -4.2
11,G58C C85A A110C U111G,≤ -4.2
12,G59A A64C G88C,≤ -4.2
13,G58C C85U,-1.17
14,G59U C99U C132U,-1.59
15,G58C G86U U104G,-1.93
16,G58C U61C G70C C76G C96U A138G G140U C149G,≤ -4.2
17,G59C A89U C96G A107G,≤ -4.2
18,G59A C132G U139C,-2.96
19,G59U G68A U78C C93G G124A C131G G141U,≤ -4.2
20,A60C C76A G92U C95A U145G C149G,≤ -4.2
21,G59C G86A,-2.61
22,G59U U139C,-3.8
23,G58U A150C,-3.57
